The target in this test is MARY-MVP (protamine-tagged human major vault protein). The experiment in a line: dynamic light scattering; DLS radii at varying MARY-MVP (0 to 7.3 nM) with INT-CFP fixed at 8.3 nM, pH 6.5 phosphate buffer, 50 mM NaCl, 1.5 mM MgCl2, after concentration.

With “MARY-MVP (protamine-tagged human major vault protein)”, the concentration of the transition from monomer to VLP was 5 nM.

Source of the values: PMC12786146.
